The Immune Epitope Database (IEDB)

What was measured:
[1] = target: HLA-B*07:02; assay: IEDB peptide-MHC binding, purified MHC/competitive/fluorescence; ≥ and ≤ were set here for values at or beyond the usual limits of such assays; settings: source organism: Callithrix jacchus
[2] = target: HLA-B*53:01; assay: as above; settings: source organism: Callithrix jacchus
[3] = target: HLA-A*11:01; assay: IEDB peptide-MHC binding, purified MHC/competitive/fluorescence; filed as Kd, often an IC50 or EC50 that approximates it; ≥ and ≤ were set here for values at or beyond the usual limits of such assays; settings: source organism: Influenza A virus
[4] = target: HLA-A*80:01; assay: as above; settings: source organism: Influenza A virus
[5] = target: HLA-B*15:17; assay: IEDB peptide-MHC binding, purified MHC/direct/fluorescence; filed as Kd, often an IC50 or EC50 that approximates it; ≥ and ≤ were set here for values at or beyond the usual limits of such assays; settings: source organism: Influenza A virus (A/swine/Chiai/77-10/2001(H3N1))
[6] = target: HLA-B*46:01; assay: as above; settings: source organism: Influenza A virus (A/swine/Chiai/77-10/2001(H3N1))
[7] = target: HLA-B*07:02; assay: as above; settings: source organism: Influenza A virus (A/swine/Chiai/77-10/2001(H3N1))
[8] = target: HLA-B*08:01; assay: as above; settings: source organism: Influenza A virus (A/turkey/NC/17026/1988(H1N1))
[9] = target: HLA-B*39:01; assay: as above; settings: source organism: Influenza A virus (A/turkey/NC/17026/1988(H1N1))
[10] = target: HLA-B*27:05; assay: as above; settings: source organism: Influenza A virus (A/swine/Chiai/77-10/2001(H3N1))
[11] = target: HLA-B*15:01; assay: as above; settings: source organism: Influenza A virus (A/swine/Chiai/77-10/2001(H3N1))
[12] = target: HLA-B*48:01; assay: as above; settings: source organism: Influenza A virus (A/swine/Chiai/77-10/2001(H3N1))
[13] = target: HLA-A*69:01; assay: as above; settings: source organism: Influenza A virus (A/swine/Chiai/77-10/2001(H3N1))
[14] = target: HLA-B*15:09; assay: as above; settings: source organism: Influenza A virus (A/turkey/NC/17026/1988(H1N1))
[15] = target: HLA-B*57:01; assay: as above; settings: source organism: Influenza A virus (A/swine/Chiai/77-10/2001(H3N1))
[16] = target: HLA-A*02:01; assay: as above; settings: source organism: Influenza A virus (A/swine/Chiai/77-10/2001(H3N1))
[17] = target: HLA-B*08:02; assay: as above; settings: source organism: Influenza A virus (A/turkey/NC/17026/1988(H1N1))
[18] = target: HLA-B*40:01; assay: as above; settings: source organism: Influenza A virus (A/swine/Chiai/77-10/2001(H3N1))
[19] = target: HLA-A*03:01; assay: as above; settings: source organism: Influenza A virus (A/swine/Chiai/77-10/2001(H3N1))
[20] = target: HLA-A*01:01; assay: as above; settings: source organism: Influenza A virus (A/swine/Chiai/77-10/2001(H3N1))
[21] = target: HLA-B*18:01; assay: as above; settings: source organism: Influenza A virus (A/swine/Chiai/77-10/2001(H3N1))
[22] = target: HLA-B*58:01; assay: as above; settings: source organism: Influenza A virus (A/swine/Chiai/77-10/2001(H3N1))
[23] = target: HLA-A*26:01; assay: as above; settings: source organism: Influenza A virus (A/turkey/NC/17026/1988(H1N1))
[24] = target: HLA-A*31:01; assay: as above; settings: source organism: Influenza A virus (A/swine/Chiai/77-10/2001(H3N1))
[25] = target: HLA-A*23:01; assay: IEDB peptide-MHC binding, purified MHC/competitive/fluorescence; filed as Kd, often an IC50 or EC50 that approximates it; ≥ and ≤ were set here for values at or beyond the usual limits of such assays
[26] = target: HLA-B*15:17; assay: as above; settings: source organism: Mycobacterium tuberculosis C
[27] = target: HLA-B*46:01; assay: as above; settings: source organism: Mycobacterium tuberculosis C
[28] = target: HLA-B*51:01; assay: as above; settings: source organism: Mycobacterium tuberculosis C
[29] = target: HLA-B*27:03; assay: as above; settings: source organism: Mycobacterium tuberculosis C
[30] = target: HLA-B*39:01; assay: as above; settings: source organism: Mycobacterium tuberculosis C
[31] = target: HLA-A*02:11; assay: as above; settings: source organism: Mycobacterium tuberculosis C
[32] = target: HLA-A*29:02; assay: as above; settings: source organism: Mycobacterium tuberculosis C
[33] = target: HLA-A*24:03; assay: as above; settings: source organism: Mycobacterium tuberculosis C
[34] = target: HLA-B*15:01; assay: as above; settings: source organism: Mycobacterium tuberculosis C
[35] = target: HLA-A*69:01; assay: as above; settings: source organism: Mycobacterium tuberculosis C
[36] = target: HLA-A*02:03; assay: as above; settings: source organism: Mycobacterium tuberculosis C
[37] = target: HLA-B*57:01; assay: as above; settings: source organism: Mycobacterium tuberculosis C
[38] = target: HLA-A*02:01; assay: as above; settings: source organism: Mycobacterium tuberculosis C
[39] = target: HLA-A*68:02; assay: as above; settings: source organism: Mycobacterium tuberculosis C
[40] = target: HLA-A*02:19; assay: as above; settings: source organism: Mycobacterium tuberculosis C
[41] = target: HLA-A*03:01; assay: as above; settings: source organism: Mycobacterium tuberculosis C
[42] = target: HLA-B*18:01; assay: as above; settings: source organism: Mycobacterium tuberculosis C
[43] = target: HLA-A*02:16; assay: as above; settings: source organism: Mycobacterium tuberculosis C
[44] = target: HLA-A*02:12; assay: as above; settings: source organism: Mycobacterium tuberculosis C
[45] = target: HLA-A*26:01; assay: as above; settings: source organism: Mycobacterium tuberculosis C

VPIAWAAA
≥ 20 µM: IC50 [2]
0.144 µM: IC50 [1]

VSFDQNLDY
0.0184 µM: Kd [4]
0.0987 µM: Kd [3]
3.44 µM: Kd [22]
0.0016 µM: Kd [5]
≥ 20 µM: Kd [6] | Kd [7] | Kd [8] | Kd [9] | Kd [10] | Kd [12] | Kd [13] | Kd [14] | Kd [15] | Kd [16] | Kd [17] | Kd [18] | Kd [21] | Kd [23] | Kd [24]
0.019 µM: Kd [11]
0.117 µM: Kd [20]
6.5 µM: Kd [19]

SYHNVDQLK
≥ 20 µM: Kd ([25]; source organism: Vibrio parahaemolyticus K5030)

SLVAIHLAC
0.443 µM: Kd [31]
≥ 20 µM: Kd ([25]; source organism: Mycobacterium tuberculosis C) | Kd [26] | Kd [27] | Kd [28] | Kd [29] | Kd [30] | Kd [32] | Kd [33] | Kd [34] | Kd [35] | Kd [36] | Kd [37] | Kd [38] | Kd [39] | Kd [40] | Kd [41] | Kd [42] | Kd [43] | Kd [44] | Kd [45]
